# Molecular target: DAXX, Q9UER7-1
# Sequence (Q9UER7 whole entry): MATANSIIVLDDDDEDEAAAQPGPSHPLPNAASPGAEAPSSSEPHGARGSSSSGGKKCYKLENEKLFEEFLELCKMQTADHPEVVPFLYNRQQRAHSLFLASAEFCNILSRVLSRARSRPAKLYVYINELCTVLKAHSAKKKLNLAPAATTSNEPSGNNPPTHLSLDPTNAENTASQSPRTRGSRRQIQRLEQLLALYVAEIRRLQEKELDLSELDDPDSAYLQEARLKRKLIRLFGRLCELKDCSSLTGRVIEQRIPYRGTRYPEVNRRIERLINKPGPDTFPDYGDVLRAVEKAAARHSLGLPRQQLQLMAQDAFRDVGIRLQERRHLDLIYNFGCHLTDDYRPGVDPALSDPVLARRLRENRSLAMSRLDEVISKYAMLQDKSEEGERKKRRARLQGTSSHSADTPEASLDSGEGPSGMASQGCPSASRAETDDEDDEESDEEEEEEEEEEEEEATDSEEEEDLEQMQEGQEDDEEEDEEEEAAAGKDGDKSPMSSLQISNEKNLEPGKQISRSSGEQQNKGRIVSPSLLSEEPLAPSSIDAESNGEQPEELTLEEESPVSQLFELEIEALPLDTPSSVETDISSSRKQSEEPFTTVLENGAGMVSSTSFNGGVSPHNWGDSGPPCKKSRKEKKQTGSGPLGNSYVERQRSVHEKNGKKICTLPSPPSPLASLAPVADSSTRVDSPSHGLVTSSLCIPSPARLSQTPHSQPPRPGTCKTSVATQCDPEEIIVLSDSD
substance,measurement,value
Histone H3.1 (Homo sapiens) (from UniProt P68431) S88A,effect of a mutation on the interaction,increasing interaction strength
